Source: paper doi:10.1101/2021.06.02.446813 (bioRxiv, 2021)

B1: antibody 5317-4 (IgG1) (antibody, V domains shown)
VH: QVQLRLWGAGLLKPSETLSLTCAVSGGSFIDYYWTWIRQPPGKGLEWIGEINHFGGSGYNPSLKSRVSISVDTSKNQFSLRLNSVTAADTAIYYCARKPLLHSSVNPGAFDIWGQGTMLTVSS
VL: EIVLTQSPGTLSLSPGERAALSCRASQSVAGTYLAWYQQKPGQAPRLLIYGASSRATGIPDRFSGSGSGTDFTLTISRLEPEDFAVYYCQQYATSPRTFGQGTQLEIR
B2: antibody 5317-10 (IgG1) (antibody, V domains shown)
VH: EVQLVQSGAEVKKPGESLTISCKASGYRFTSNWITWVRQMPGKGLEWMGRIDPDDPYSNSSPSFQGHATLSLDKAINTAYLHWSSLKASDTAMYYCARVNRVGDGPDFWGQGTLVTVSS
VL: DIVMTQSPLSLPVTPGEPASISCRSSQSLLFGNGYTYLNWYLQKPGQSPQLLIYLGSNRASGVPDRFSVSGSGTDFTLIISRVEAEDVGVYFCMQALQTPWTFGQGTKVEIK

What was measured:
[1] = biological target: SARS-CoV-2 RBD-SD1 (residues 306-577) (Severe acute respiratory syndrome …, UniProt P0DTC2); assay: BLI
[2] = biological target: SARS-CoV-2 S1 protein (Sino Biological) (SARS-CoV-2, ancestral (Wuhan-Hu-1) …, UniProt P0DTC2); assay: ELISA

Binder	binding result [1]	binding result [2]
B1	binds	–
B2	–	binds
